Reference: paper PMC12148439 (2025)

Columns and labels:
[1] = target: T1, CitAGacS649 (chimeric protein: GacS649 with its PDC domain replaced by the PDC domain of CitA from K (Pseudomonas aeruginosa | Klebsiella …, UniProt P52687 55-173, amine-reactive AlexaFluor 488 label (in the MST))); assay: MST; no citrate
[2] = target: T1, CitAGacS649 (chimeric protein: GacS649 …); assay: MST; 0.01 M citrate

B1: RetSHK (histidine kinase region of the sensor histidine kinase RetS, residues 413-649) (domain or fragment)
chain: QTKAEFLAKISHEIRTPMNGVLGMTELLLGTPLSAKQRDYVQTIHSAGNELLTLINEILDISKLESGQIELDEVQFDLNALIEDCLDIFRVKAEQQRIELISFTQPQVPRVIGGDPTRLRQVVLSLLDNAFKQTEEGEILLVVALDDQGETPRLRIAVQDSGHPFDAKEREALLTAELHSGDFLSASKLGSHLGLIIARQLVRLMGGEFGIQSGSSQGTTLSLTLPLDPQQLENPTA
Kd [1]: 11 µM | Kd [2]: 46 µM
